Entries after “also recorded” stand apart in the source; their conditions may differ.
What was measured:
[1] = target: T1, APP (Homo sapiens, UniProt P05067); assay: cell-based AP binding assay, APP expressing COS-1 cells; conditions: DR6-AP conditioned medium 1:1 with binding buffer, 90 minutes
T1 construct: expressed in transfected cells; host or cells: COS-1
Description: The materials and methods used to generate the data shown in this figure are as follows. To test whether APP directly interacts with DR6 extracellular domain, a cell-based AP binding assay was carried out (FIG. 14B). To generate DR6 ectodomain-AP fusion protein (DR6-AP), COS-1 cells cultured in DMEM/10% FBS (Gibco) medium were transfected with 15 microgram of DR6-AP fusion expression construct using FuGene transfection reagent (Roche) according to the manufacturer protocol. Twelve hours post-transfection, COS-1 cell medium was changed to OPTI-MEM (Invitrogen). Forty-eight hours post-transfection, COS-1 cell conditioned medium containing DR6-AP proteins was collected and filtered.
The amount of DR6-AP proteins in the medium was quantified according to the following procedure. 100 microliters of 2×AP buffer (prepared by adding 100 mg Para-nitrophenyl phosphate (Sigma) and 15 microliter of 1M MgCl2 to 15 ml 2M diethanolamine pH 9.8) was mixed with equal volume of transfected COS cell conditioned medium or control conditioned medium from untransfected COS-1 cells. […] The volume of reaction was then adjusted by adding 800 microliters of distilled water and the O.D. was measured at 405 nm absorbance wavelength. The concentration in nM was calculated according to the formula (for 100 microliter): C (nM)=O.D.×100×(60/developing time)/30. […]

[2] = target: T2, p75NTR (Homo sapiens, UniProt P08138); assay: cell-based AP binding assay, p75NTR expressing COS-1 cells; conditions: same conditions as APP binding
T2 construct: expressed in transfected cells; host or cells: COS-1
T2 sequence (P08138 29-427): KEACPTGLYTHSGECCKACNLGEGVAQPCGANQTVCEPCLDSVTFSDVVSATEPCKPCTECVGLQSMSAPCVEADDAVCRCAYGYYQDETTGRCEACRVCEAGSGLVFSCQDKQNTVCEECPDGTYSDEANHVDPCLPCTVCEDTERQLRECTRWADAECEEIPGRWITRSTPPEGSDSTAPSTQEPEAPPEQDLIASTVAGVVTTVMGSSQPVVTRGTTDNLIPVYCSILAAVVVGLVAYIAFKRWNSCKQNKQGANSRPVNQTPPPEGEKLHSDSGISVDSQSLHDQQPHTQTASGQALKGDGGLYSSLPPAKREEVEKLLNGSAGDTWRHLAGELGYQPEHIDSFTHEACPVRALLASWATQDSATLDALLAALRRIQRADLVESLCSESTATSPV
Description: (§1) For the APP AP binding assay, COS-1 cells cultured in DMEM/10% FBS (Gibco) medium in 6-well culture dishes were transfected with 2 microgram of APP expressing vector per well using FuGene transfection reagent (Roche) according to the manufacturer protocol. Two days post-transfection, cells were washed twice with the binding buffer (HBSS, Gibco Cat. No. 14175-095, with 0.2% BSA, 0.1% NaN3, 5 mM CaCl2, 1 mM MgCl2, 20 mM HEPES, pH=7.0). An AP binding assay was then carried out by making a 1:1 mixture of DR6-AP conditioned medium and the binding buffer, which was applied directly to APP over-expressing COS-1 cells and incubated for 90 minutes at room temperature. Following the incubation, the unbound DR6-AP proteins were washed away by rinsing COS-1 cells five times with the binding buffer. Cells were then fixed with 3.7% formaldehyde diluted in PBS, for 12 minutes at room temperature. The remaining formaldehyde was removed by rinsing cells 3 times with HBS buffer (20 mM HEPES pH=7.0, 150 mM NaCl). Endogenous AP activity was blocked by heat inactivation at 65° C. in HBS buffer for 30 minutes. COS-1 cells were then rinsed three times in the AP reaction buffer (100 mM TRIS pH=9.5, 100 mM NaCl, 50 mM MgCl2). […]

[3] = target: T3, DR6 receptor (Homo sapiens, UniProt O75509); assay: cell-based AP binding assay, DR6 receptor expressing COS-1 cells; conditions: same conditions as APP binding
T3 construct: expressed in transfected cells; host or cells: COS-1
T3 sequence (O75509 42-655): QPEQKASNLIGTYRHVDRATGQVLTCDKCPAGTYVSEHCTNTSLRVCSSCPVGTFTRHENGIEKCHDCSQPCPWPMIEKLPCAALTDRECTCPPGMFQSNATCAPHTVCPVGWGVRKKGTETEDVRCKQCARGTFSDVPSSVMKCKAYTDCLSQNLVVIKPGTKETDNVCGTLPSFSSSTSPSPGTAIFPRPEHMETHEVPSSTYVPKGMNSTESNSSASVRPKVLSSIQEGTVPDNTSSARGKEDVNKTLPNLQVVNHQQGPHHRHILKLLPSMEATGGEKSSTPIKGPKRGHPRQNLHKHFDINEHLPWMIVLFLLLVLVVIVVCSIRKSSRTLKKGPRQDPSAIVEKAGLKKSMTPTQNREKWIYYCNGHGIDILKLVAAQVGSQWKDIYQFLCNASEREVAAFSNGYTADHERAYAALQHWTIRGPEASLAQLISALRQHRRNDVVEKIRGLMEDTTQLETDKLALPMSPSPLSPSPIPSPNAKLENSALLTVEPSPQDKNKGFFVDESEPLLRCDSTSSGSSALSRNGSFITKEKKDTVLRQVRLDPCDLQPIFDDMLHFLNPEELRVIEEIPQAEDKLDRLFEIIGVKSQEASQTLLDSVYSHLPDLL
Description: as §1

T1 sequence (P05067 18-770): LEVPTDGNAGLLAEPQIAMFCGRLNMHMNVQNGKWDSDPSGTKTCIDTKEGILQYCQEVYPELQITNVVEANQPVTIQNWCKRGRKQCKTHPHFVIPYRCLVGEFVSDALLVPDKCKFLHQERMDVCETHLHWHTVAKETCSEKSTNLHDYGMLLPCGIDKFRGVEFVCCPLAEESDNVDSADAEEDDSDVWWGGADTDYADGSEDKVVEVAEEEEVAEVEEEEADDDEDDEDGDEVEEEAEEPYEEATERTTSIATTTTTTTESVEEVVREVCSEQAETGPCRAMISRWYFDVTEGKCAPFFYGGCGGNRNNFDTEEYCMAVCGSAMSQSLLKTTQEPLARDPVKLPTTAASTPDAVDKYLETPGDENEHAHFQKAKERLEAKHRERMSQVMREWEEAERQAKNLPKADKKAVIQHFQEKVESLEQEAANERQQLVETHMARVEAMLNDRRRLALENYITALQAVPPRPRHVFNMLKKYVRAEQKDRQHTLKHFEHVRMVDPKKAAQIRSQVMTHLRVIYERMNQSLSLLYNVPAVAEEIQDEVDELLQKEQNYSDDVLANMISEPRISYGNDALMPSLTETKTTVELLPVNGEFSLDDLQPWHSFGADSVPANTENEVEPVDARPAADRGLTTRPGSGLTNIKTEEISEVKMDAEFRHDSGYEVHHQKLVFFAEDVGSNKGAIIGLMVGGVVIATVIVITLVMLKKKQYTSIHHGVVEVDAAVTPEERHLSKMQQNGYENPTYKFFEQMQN

B1: DR6-AP: mouse DR6 ectodomain fused to human placental alkaline phosphatase (protein)
chain: QPEQKTLSLPGTYRHVDRTTGQVLTCDKCPAGTYVSEHCTNMSLRVCSSCPAGTFTRHENGIERCHDCSQPCPWPMIERLPCAALTDRECICPPGMYQSNGTCAPHTVCPVGWGVRKKGTENEDVRCKQCARGTFSDVPSSVMKCKAHTDCLGQNLEVVKPGTKETDNVCGMRLFFSSTNPPSSGTVTFSHPEHMESHDVPSSTYEPQGMNSTDSNSTASVRTKVPSGIEEGTVPDNTSSTSGKEGTNRTLPNPPQVTHQQAPHHRHILKLLPSSMEATGEKSSTAIKAPKRGHPRQNAHKHFDINEHIIPVEEENPDFWNREAAEALGAAKKLQPAQTAAKNLIIFLGDGMGVSTVTAARILKGQKKDKLGPEIPLAMDRFPYVALSKTYNVDKHVPDSGATATAYLCGVKGNFQTIGLSAAARFNQCNTTRGNEVISVMNRAKKAGKSVGVVTTTRVQHASPAGTYAHTVNRNWYSDADVPASARQEGCQDIATQLISNMDIDVILGGGRKYMFRMGTPDPEYPDDYSQGGTRLDGKNLVQEWLAKRQGARYVWNRTELMQASLDPSVTHLMGLFEPGDMKYEIHRDSTLDPSLMEMTEAALRLLSRNPRGFFLFVEGGRIDHGHHESRAYRALTETIMFDDAIERAGQLTSEEDTLSLVTADHSHVFSFGGYPLRGSSIFGLAPGKARDRKAYTVLLYGNGPGYVLKDGARPDVTESESGSPEYRQQSAVPLDEETHAGEDVAVFARGPQAHLVHGVQEQTFIAHVMAFAACLEPYTACDLAPPAGTTDAAHPG
binding of DR6 ectodomain to APP expressing cells [1]: binds APP expressed by cultured cells | binding of DR6 ectodomain to p75NTR expressing cells [2]: does NOT bind; also recorded: no specific binding | binding of DR6 ectodomain to DR6 receptor expressing cells [3]: does NOT bind; also recorded: no specific binding
